Data on 6 sequences can be found in the supplement of paper PMC5998384.

The test system of data set [1] is HeLa Kyoto. Put plainly: solubility change mitosis vs G1/S (difference of NP-40 vs SDS log2 ratios) (log2 ratio difference); higher = more soluble in mitosis.
The subject of data set [2] is HeLa Kyoto. Put plainly: melting temperature (median over replicates), in situ; higher = more thermally stable.
Data set [3] deals with HeLa Kyoto. Put plainly: thermal stability score vs G1/S (z-score of summed log2 fold changes over temperatures); higher = more thermally stable than in G1/S.
Data set [4] deals with HeLa Kyoto. Put plainly: solubility in G1/S (NP-40 vs SDS abundance) (log2 ratio); higher = more soluble. Conditions: cell cycle stage: G1/S.
The mark [5] stands for this setting: cell cycle stage: early G1 (4.5 h after nocodazole release).
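Throughout, for melting temperature (median over replicates), in situ: HeLa Kyoto cells synchronized by double thymidine or nocodazole block, proteins quantified by TMT10plex mass spectrometry, three independent biological replicates.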
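Throughout, for solubility change mitosis vs G1/S (difference of NP-40 vs SDS log2 ratios): synchronized HeLa Kyoto cells (double thymidine block for G1/S, nocodazole release for mitosis), protein amounts in NP-40 versus SDS lysates quantified by mass spectrometry, three biological replicates.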
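Throughout, for solubility in G1/S (NP-40 vs SDS abundance): HeLa Kyoto cells arrested at G1/S by double thymidine block, proteins quantified by TMT10plex mass spectrometry in mild NP-40 versus SDS extracts, three biological replicates.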
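Throughout, for thermal stability score vs G1/S (z-score of summed log2 fold changes over temperatures): synchronized HeLa Kyoto cells, proteins quantified by TMT10plex mass spectrometry, three biological replicates, mitosis taken 0.5 h after nocodazole release, G1/S directly after double thymidine block.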

With “MAELGAGGDGHRGGDGAVRSETAPDSYKVQDKKNASSRPASAISGQNNNHSGNKPDPPPVLRVDDRQRLARERREEREKQLAAREIVWLEREERARQHYEKHLEERKKRLEEQRQKEERRRAAVEEKRRQRLEEDKERHEAVVRRTMERSQKPKQKHNRWSWGGSLHGSPSIHSADPDRRSVSTMNLSKYVDPVISKRLSSSSATLLNSPDRARRLQLSPWESSVVNRLLTPTHSFLARSKSTAALSGEAASCSPIIMPYKAAHSRNSMDRPKLFVTPPEGSSRRRIIHGTASYKKERERENVLFLTSGTRRAVSPSNPKARQPARSRLWLPSKSLPHLPGTPRPTSSLPPGSVKAAPAQVRPPSPGNIRPVKREVKVEPEKKDPEKEPQKVANEPSLKGRAPLVKVEEATVEERTPAEPEVGPAAPAMAPAPASAPAPASAPAPAPVPTPAMVSAPSSTVNASASVKTSAGTTDPEEATRLLAEKRRLAREQREKEERERREQEELERQKREELAQRVAEERTTRREEESRRLEAEQAREKEEQLQRQAEERALREREEAERAQRQKEEEARVREEAERVRQEREKHFQREEQERLERKKRLEEIMKRTRRTEATDKKTSDQRNGDIAKGALTGGTEVSALPCTTNAPGNGKPVGSPHVVTSHQSKVTVESTPDLEKQPNENGVSVQNENFEEIINLPIGSKPSRLDVTNSESPEIPLNPILAFDDEGTLGPLPQVDGVQTQQTAEVI [MAP7]”, the “solubility change mitosis (log2)” value with HeLa Kyoto [1] was 0.704. The melting temperature with HeLa Kyoto [2] (cell cycle stage: G1/S) was 54.3 °C; in the data set with HeLa Kyoto [2] (cell cycle stage: mitosis) it was 52.1 °C. Moreover, the thermal stability score with HeLa Kyoto [3] (setting [5]) is -5.44; in the data set with HeLa Kyoto [3] (cell cycle stage: mitosis), -8.57. In addition, the “solubility in G1/S (log2)” value in the data set on HeLa Kyoto [4] was -0.661.

For the sequence “MAELQMLLEEEIPSGKRALIESYQNLTRVADYCENNYIQATDKRKALEETKAYTTQSLASVAYQINALANNVLQLLDIQASQLRRMESSINHISQTVDIHKEKVARREIGILTTNKNTSRTHKIIAPANMERPVRYIRKPIDYTVLDDVGHGVKWLKAKHGNNQPARTGTLSRTNPPTQKPPSPPMSGRGTLGRNTPYKTLEPVKPPTVPNDYMTSPARLGSQHSPGRTASLNQRPRTHSGSSGGSGSRENSGSSSIGIPIAVPTPSPPTIGPENISVPPPSGAPPAPPLAPLLPVSTVIAAPGSAPGSQYGTMTRQISRHNSTTSSTSSGGYRRTPSVTAQFSAQPHVNGGPLYSQNSISIAPPPPPMPQLTPQIPLTGFVARVQENIADSPTPPPPPPPDDIPMFDDSPPPPPPPPVDYEDEEAAVVQYNDPYADGDPAWAPKNYIEKVVAIYDYTKDKDDELSFMEGAIIYVIKKNDDGWYEGVCNRVTGLFPGNYVESIMHYTD [ABI1]”, the “solubility change mitosis (log2)” value with HeLa Kyoto [1] was -0.104. For the same sequence, the melting temperature in the data set with HeLa Kyoto [2] (cell cycle stage: G1/S) amounted to 51.1 °C; in the data set on HeLa Kyoto [2] (cell cycle stage: mitosis), 51.4 °C. Moreover, the values for the thermal stability score in the data set with HeLa Kyoto [3] (setting [5]) and in the data set with HeLa Kyoto [3] (cell cycle stage: mitosis) were -0.724 and -0.695, respectively. Moreover, the “solubility in G1/S (log2)” value in the data set on HeLa Kyoto [4] was 0.313.

As for “MAELRVLVAVKRVIDYAVKIRVKPDRTGVVTDGVKHSMNPFCEIAVEEAVRLKEKKLVKEVIAVSCGPAQCQETIRTALAMGADRGIHVEVPPAEAERLGPLQVARVLAKLAEKEKVDLVLLGKQAIDDDCNQTGQMTAGFLDWPQGTFASQVTLEGDKLKVEREIDGGLETLRLKLPAVVTADLRLNEPRYATLPNIMKAKKKKIEVIKPGDLGVDLTSKLSVISVEDPPQRTAGVKVETTEDLVAKLKEIGRI [ETFB]”, in the data set with HeLa Kyoto [1], the “solubility change mitosis (log2)” value came out at 0.0272. Also, the melting temperature in the data set with HeLa Kyoto [2] (cell cycle stage: G1/S) was found to be 54 °C; in the data set on HeLa Kyoto [2] (cell cycle stage: mitosis), 54.2 °C. Also, the figures for the thermal stability score in the data set on HeLa Kyoto [3] (setting [5]) and in the data set with HeLa Kyoto [3] (cell cycle stage: mitosis) were -1.74 and -0.806, respectively. Moreover, the “solubility in G1/S (log2)” value with HeLa Kyoto [4] came out at 0.362.

Take “MAENHAQNKAKLISETRRRFEAEYVTDKSDKYDARDVERLQQDDNWVESYLSWRHNIVDETLKMLDESFQWRKEISVNDLNESSIPRWLLEIGVIYLHGYDKEGNKLFWIRVKYHVKDQKTILDKKKLIAFWLERYAKRENGKPVTVMFDLSETGINSIDMDFVRFIINCFKVYYPKYLSKIVIFDMPWLMNAAFKIVKTWLGPEAVSLLKFTSKNEVQDYVSVEYLPPHMGGTDPFKYSYPPLVDDDFQTPLCENGPITSEDETSSKEDIESDGKETLETISNEEQTPLLKKINPTESTSKAEENEKVDSKVKAFKKPLSVFKGPLLHISPAEELYFGSTESGEKKTLIVLTNVTKNIVAFKVRTTAPEKYRVKPSNSSCDPGASVDIVVSPHGGLTVSAQDRFLIMAAEMEQSSGTGPAELTQFWKEVPRNKVMEHRLRCHTVESSKPNTLTLKDNAFNMSDKTSEDICLQLSRLLESNRKLEDQVQRCIWFQQLLLSLTMLLLAFVTSFFYLLYS [MOSPD2]”: the “solubility change mitosis (log2)” value in the data set on HeLa Kyoto [1] was -0.115. The melting temperature in the data set on HeLa Kyoto [2] (cell cycle stage: G1/S) and in the data set with HeLa Kyoto [2] (cell cycle stage: mitosis) was 51.4 °C each time. In addition, the thermal stability score in the data set on HeLa Kyoto [3] (setting [5]) stood at 1.72; in the data set with HeLa Kyoto [3] (cell cycle stage: mitosis), 0.81. Further, the “solubility in G1/S (log2)” value in the data set on HeLa Kyoto [4] was -0.0365.

“MAENTEGDLNSNLLHAPYHTGDPQLDTAIGQWLRWDKNPKTKEQIENLLRNGMNKELRDRLCCRMTFGTAGLRSAMGAGFCYINDLTVIQSTQGMYKYLERCFSDFKQRGFVVGYDTRGQVTSSCSSQRLAKLTAAVLLAKDVPVYLFSRYVPTPFVPYAVQKLKAVAGVMITASHNRKEDNGYKVYWETGAQITSPHDKEILKCIEECVEPWNGSWNDNLVDTSPLKRDPLQDICRRYMEDLKKICFYRELNSKTTLKFVHTSFHGVGHDYVQLAFKVFGFKPPIPVPEQKDPDPDFSTVKCPNPEEGESVLELSLRLAEKENARVVLATDPDADRLAAAELQENGCWKVFTGNELAALFGWWMFDCWKKNKSRNADVKNVYMLATTVSSKILKAIALKEGFHFEETLPGFKWIGSRIIDLLENGKEVLFAFEESIGFLCGTSVLDKDGVSAAVVVAEMASYLETMNITLKQQLVKVYEKYGYHISKTSYFLCYEPPTIKSIFERLRNFDSPKEYPKFCGTFAILHVRDVTTGYDSSQPNKKSVLPVSKNSQMITFTFQNGCVATLRTSGTEPKIKYYAEMCASPDQSDTALLEEELKKLIDALIENFLQPSKNGLIWRSV [PGM2L1]”: the “solubility change mitosis (log2)” value with HeLa Kyoto [1] is -0.173. The melting temperature in the data set on HeLa Kyoto [2] (cell cycle stage: G1/S) was 53.4 °C; with HeLa Kyoto [2] (cell cycle stage: mitosis), 54.2 °C. Moreover, the thermal stability score in the data set on HeLa Kyoto [3] (setting [5]) was 0.325; in the data set with HeLa Kyoto [3] (cell cycle stage: mitosis), -0.133. The “solubility in G1/S (log2)” value with HeLa Kyoto [4] came out at 0.0482.

Consider “MAEPSAPESKHKSSLNSSPWSGLMALGNSRHGHHGPGAQCAHKAAGGAAPPKPAPAGLSGGLSQPAGWQSLLSFTILFLAWLAGFSSRLFAVIRFESIIHEFDPWFNYRSTHHLASHGFYEFLNWFDERAWYPLGRIVGGTVYPGLMITAGLIHWILNTLNITVHIRDVCVFLAPTFSGLTSISTFLLTRELWNQGAGLLAACFIAIVPGYISRSVAGSFDNEGIAIFALQFTYYLWVKSVKTGSVFWTMCCCLSYFYMVSAWGGYVFIINLIPLHVFVLLLMQRYSKRVYIAYSTFYIVGLILSMQIPFVGFQPIRTSEHMAAAGVFALLQAYAFLQYLRDRLTKQEFQTLFFLGVSLAAGAVFLSVIYLTYTGYIAPWSGRFYSLWDTGYAKIHIPIIASVSEHQPTTWVSFFFDLHILVCTFPAGLWFCIKNINDERVFVALYAISAVYFAGVMVRLMLTLTPVVCMLSAIAFSNVFEHYLGDDMKRENPPVEDSSDEDDKRNQGNLYDKAGKVRKHATEQEKTEEGLGPNIKSIVTMLMLMLLMMFAVHCTWVTSNAYSSPSVVLASYNHDGTRNILDDFREAYFWLRQNTDEHARVMSWWDYGYQIAGMANRTTLVDNNTWNNSHIALVGKAMSSNETAAYKIMRTLDVDYVLVIFGGVIGYSGDDINKFLWMVRIAEGEHPKDIRESDYFTPQGEFRVDKAGSPTLLNCLMYKMSYYRFGEMQLDFRTPPGFDRTRNAEIGNKDIKFKHLEEAFTSEHWLVRIYKVKAPDNRETLDHKPRVTNIFPKQKYLSKKTTKRKRGYIKNKLVFKKGKKISKKTV [STT3B]”, for which, in the data set on HeLa Kyoto [1], the “solubility change mitosis (log2)” value is -0.0861. For the same sequence, the figures for the melting temperature in the data set on HeLa Kyoto [2] (cell cycle stage: G1/S) and in the data set on HeLa Kyoto [2] (cell cycle stage: mitosis) were 53.8 °C and 54.2 °C, respectively. For the same sequence, the thermal stability score in the data set on HeLa Kyoto [3] (setting [5]) amounted to 3.35; in the data set on HeLa Kyoto [3] (cell cycle stage: mitosis), 3.7. In the data set on HeLa Kyoto [4], the “solubility in G1/S (log2)” value was -0.175.
